# Source: patent publication US20050038229A1 (published 2005)
# Substitutions are numbered along the chain they refer to.
# B1: T14.20 (designed binder)
# chain: VSDVPRDLEVVAATPTSRLISWRNIYPIARYYRITYGETGGNSPVQEFTVPPWASIATISGLKPGADYTITVYAVTDKSDTYKYDDPISINYRT
# B2: T14.22 (designed binder)
# chain: VSDVPRDLEVVAATPSSRLISWRPGRTYSRYYRITYGETGGNSPVQEFTVPPWANTATISGLKPGVDYTIAVYAVTFPTGYPLTEMPISINYRT
# B3: M12.09 (designed binder)
# chain: B2 chain with S16T, T27A, Y32F, T79P, G80R, T94A
# B4: T14.02 (designed binder)
# chain: VSDVPRDLEVVVATPTSQLISWMTPHNHVRYYGITYGETGGNSPVQESTVPTGNATATISGLKPGVDYTITVYAVTPHHGHFDLEPPISINYRT
# B5: T14.21 (designed binder)
# chain: VSDVPRDLEVVAATPTSRLISWRPGRTYSRYYRITYGETGGNSPVQEFTVPPWANTATISGLKPGVDYTITAYAVTYTHSTPMQDEPISINYRT
# B6: M12.04 (designed binder)
# chain: VSDVPGDLEVVAATPTSLLIGWSMTPNWPRYYRIAYGETGGDSPVQEFTVPPWASIAIIGGLKPGVDYTITVYAVTHRDTPISINYRT
# notes: FG loop cell holds only HRDT
# B7: M12.12 (designed binder)
# chain: VSDVPSDLEVVAATPTSLLISWEQSPTYGRYYRITYGETGGNSPVQEFTVPGSKSTATISGRKPGADYTITVYAVTIEKDRIPLFGPISISYRT
# B8: M12.16 (designed binder)
# chain: B1 chain with N24P, I25G, Y26R, P27T, I28Y, A29S, T39A, A66V, D80G, K83R
# B9: M12.08 (designed binder)
# chain: VSDVPRDLEVVAATPTSLLNVPIIRYYRITYGETGGNSPVQEFTVPAPKAIATTSGLKPGVDYTITVYGVTSHRNHFHVETPISINYQA
# notes: BC loop cell holds only II
# B10: M12.19 (designed binder)
# chain: VSDVPRDLEVVAATPTGLLISWRNNQYTPRHYGITYGETGGKSPVQEFTVPELNPTATISRLKPGVDYTITVYAVTQNGTPRVIYGPISINYRT
# B11: M12.22 (designed binder)
# chain: VSDVPRDLRVVAATPTSRLISWRPASNPARYYRITYGETGGNSPVQEFTVPPWASVATIGGLKPGVDYTVTVYAVTAQTGHRLHDKPISINYRT
# B12: M12.24 (designed binder)
# chain: VSDVPRDLEVVAATPTSRLISWNRSGLQSGYYRITYGETGGNSPVQEFTVPPWASIATISGLKPGVDYTITVYAVTPNVGRLDTRYPISIDCRT
# B13: M12.14 (designed binder)
# chain: VSDVPRDLKVVAATPTSRLISWTHDNVPARYYRITYGETGGNSPVQELTVPPWASIATISGLKPGVDYTITVYAVTLYTGNHRPEHPISINYRT
# B14: T10.15 (designed binder)
# chain: VSDVPRDLEVVAATPTSLLISWHTERSFPRYYRITYGETGGNSPVQEFTVPPWGSIATISGLKPGVDYTITVYAVTEHYRDTGTGHPIPINYRT
# Biological target: T1, tumor necrosis factor-α (TNF-α) (human, UniProt P01375 77-233, biotinylated with NHS-LC-LC-Biotin in the Kd and fluorescence assays; coupled to Epoxy-Activated Sepharose 6B in the column assays)
# T1 construct: Bought from Pepro Tech; also called biotin-TNF-α; biotinylated TNF-α
# Experiment: 35S free protein + biotin-TNF-α, capture membrane, equilibrium fit
# Method: Subsequently, each sample was loaded on a pre-soaked, SAM2R Biotin Capture Membrane (Promega, Madison, Wis.) using a 96 well, Easy-Titer™ ELIFA system (Pierce). Under vacuum, each spot was washed with 200 μL of HBS pH 7.4, 1% BSA, 0.05% Triton; next the entire membrane was rinsed in the buffer and air-dried. The membrane was exposed with a Storage Phosphor Screen (Molecular Dynamics, Sunnyvale, Calif.) overnight, and the intensities of the resulting individual spots were quantified using a STORM 860 phosphoimager with the ImageQuaNT densitometry program (Molecular Dynamics). The Kd of the binding was determined by fitting the equilibrium equation to the resulting binding curve (KaleidaGraph, Synergy Software); the error of the experiment was estimated from 2-4 independent experiments.
# T1 sequence (P01375 77-233 limits assumed): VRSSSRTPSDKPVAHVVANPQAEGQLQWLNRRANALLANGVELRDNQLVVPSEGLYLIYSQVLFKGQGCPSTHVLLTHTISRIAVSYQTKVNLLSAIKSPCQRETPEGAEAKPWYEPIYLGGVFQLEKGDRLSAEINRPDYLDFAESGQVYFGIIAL
row,Binder,Kd [nM]
1,B1,0.11
2,B2,0.4
3,B3,0.4
4,B4,0.5
5,B5,7
6,B6,0.02
7,B7,0.2
8,B8,0.3
9,B9,0.6
10,B10,0.6
11,B11,0.7
12,B12,1.3
13,B13,1.7
14,B14,4
